The nature of the series: soluble on expression in E. coli; label from the status in PepcDB or PDB records.
As to “MDIIERITKLKNEKNAVILAHNYQPEEIQKIADIIGDSLELCIAARDTDADVIVFCGVDFMAETAKVLNSGKKVLIPEIIETDCPMAHQLPPEIILEAKKKNPDAKVVIYVNTLASAKALADATCTSANADKVVNSFEEDEILFGPDNNLGYFVSKRSNKKIIPMPEGGHCYVHKMFTLDDAKAVKEKYPNAELLIHPESDPKLQETADYVMSTGGMVKHVLNSECSEFIIGTECDMISRLKIELEKAGKSKKLIPLRTDAICKSMKNITLEKIEKCLLEEKHEIMLDEKIIENARKAIERMLSILEHHHHHH”, the “soluble on expression in E. coli” value is “not soluble”.
With “MDIRARTKIIDIYSNLKYKKPLKSFQKILTTSDSDNCEDFFNIGLNIDKNKITAIGFDGDGCIISTIATELSIKAIENKTINQAKKILSDLIATYKDKNSANQVVEELKLLIEMNVTEKRLQCLLLTPSNLLQWFKNF” the entry was “not soluble”; with “MDISRRNFLKSTASFGAIASLGLPGYSLAAPSNDFRALICVYLAGGNDAINTILPLSDFHYNQYANVRGSLSVAKNTIIPIRLNAHDANNNAVPLGLHPKLSALAPLFQQGDANLVLNSGILNQPVTKQAIEQGDVPLPEQLFSHNSQTASWLRGGMDASTNLGWAGRMLDVLTSDAQITPLYSVHGDTLWLKAMEHRQTVLKKDKAVQLTAVGNPLYEEVYQKLLSQSADNPFSGHFNLMVDESMMMSNILAEQLKLIDDAPLFSSSTLGKQMQTVYKLIASQSALSQQRQVFFVKHTGYDLHDSQLARHPLLLEDLATNLNAMYRAVDKLGMSKNVTTFTMSDFGRRMTNNGNGTDHGWGGHQLLIGGAVNGSAPIGTWPELTLGGQDDYSKGRLIPAIAADQVGSTLAQWMGVSDNAALEYVFPNIRNFTTSNLGFMA”, “not soluble”.
With “MDKELNPSIGDYTGRTVDTLQNAVYIRLMTPLGSWWADKTLGSLLHLLQREKDLQRVSLLAEQYADEALQPIVKSGRADKITVRAEQPHDGRLILHIRMDTAAGGFDYRHEVPVI” the entry was “not soluble”.
With “MDKFRVQGPTKLQGEVTISGAKNAALPILFAALLAEEPVEIQNVPKLKDVDTSMKLLSQLGAKVERDGSVHIDARDVNVFCAPYDLVKTMRASIWALGPLVARFGQGQVSLPGGCTIGARPVDLHISGLEQLGATIKLEEGYVKASVDGRLKGAHIVMDKVSVGATVTIMCAATLAEGTTIIENAAREPEIVDTANFLITLGAKISGQGTDRIVIEGVERLGGGVYRVLPDRIETGTFLVAAAISRGKIICRNAQPDTLDAVLAKLRDAGADIEVGEDWISLDMHGKRPKAVNVRTAPHPAFPTDMQAQFTLLNLVAEGTGFITETVFENRFMHVPELSRMGAHAEIESNTVICHGVEKLSGAQVMATDLRASASLVLAGCIAEGTTVVDRIYHIDRGYERIEDKLRALGANIERVKGELVPR” the entry was “soluble”; with “MDKQIGFIGCGNMGMAMIGGMINKNIVSSNQIICSDLNTANLKNASEKYGLTTTTDNNEVAKNADILILSIKPDLYASIINEIKEIIKNDAIIVTIAAGKSIESTENAFNKKVKVVRVMPNTPALVGEGMSALCPNEMVTEKDLEDVLNIFNSFGQTEIVSEKLMDVVTSVSGSSPAYVYMIIEAMADAAVLDGMPRNQAYKFAAQAVLGSAKMVLETGIHPGELKDMVCSPGGTTIEAVATLEEKGLRTAIISAMQRCTQKSVELSGQTKKLEHHHHHH”, “soluble”; with “MDKVKAARSLIQEALAQSQNPCFTCSFQAEDVVVLHLLLKERPEIPVLFLDTGYHFPEVYAYRDELQKRLGFRLVNLTPALSREEQERLYGKLYETDPGRCCALRKVEPLFAALEAHDTWFTGLRREQSPTRRNLEPQEEARLPSGHRLKKVNPLYDWTLKEVFAYLAVEDLPYLPLYDQGYLSIGCAPCTAKPLDPSDPRSGRWAGKGKLECGIHLHGKEG”, “soluble”.
Regarding “MDLASNLGGKIDKSDVLTAVEKYEQYHVFHGGNEEERKANYTDMVNKYYDLATSFYEYGWGESFHFAQRWKGESLRESIKRHEHFLALQLGIQPGQKVLDVGCGIGGPLREIARFSNSVVTGLNNNEYQITRGKELNRLAGVDKTCNFVKADFMKMPFPENSFDAVYAIEATCHAPDAYGCYKEIYRVLKPGQCFAAYEWCMTDAFDPDNAEHQKIKGEIEIGDGLPDIRLTTKCLEALKQAGFEVIWEKDLAKDSPVPWYLPLDKNHFSLSSFRLTAVGRFITKNMVKILEYIRLAPQGSQRVSNFLEQAAEGLVDGGRREIFTPMYFFLARKPE”, the “soluble on expression in E. coli” value is “soluble”.
Consider “MDLHSGLPYWVVKNSLLDYFHPLEDDFSTDIVVVGSGITGALMVHELCSAGLRCCMVDKRSIATGSSIASTALLQYEIDVPLCEMAEIIGEDNAVSAYRASLASIADIEKVLKETGVDADFEKRPSLFYASIPKDIELIEKEYVIRKKHNLPVRLLGKEEIKKLYNIEVPGNALLNRVSAQMDAYKATTGLLLYHMKKDGLEIFTHTGVTECVEMPEGYIIETDRGHKIECKYVIIASGFEAGKFLSREIMDLTSTYALVSHPVDSKDLWPEQCLIWETAEPYLYIRTTRGNRIIVGGEDEKFSDPERRDALLRKKTLVLEKKFRRLFPSIPFKTEMAWCGTFSTTKDGLPFIGNCPDKDRMFFDLGYGGNGITFSMIGAQIICKKLQGIDDERGRIFGYERIEKYWLEHHHHHH”, for which the “soluble on expression in E. coli” value was “not soluble”.
Under “MDLLFGRRKTPEELLRQNQRALNRAMRELDRERQKLETQEKKIIADIKKMAKQGQMDAVRIMAKDLVRTRRYVRKFVLMRANIQAVSLKIQTLKSNNSMAQAMKGVTKAMGTMNRQLKLPQIQKIMMEFERQAEIMDMKEEMMNDAIDDAMGDEEDEEESDAVVSQVLDELGLSLTDELSNLPSTGGSLSVAAGGKKAEAAASALADADADLEERLKNLRRD” stands “soluble”; under “MDLLKKEYTGITYISGPLLFVENAKDLAYGAIVDIKDGTGRVRGGQVIEVSEEYAVIQVFEETTGLDLATTSVSLVEDVARLGVSKEMLGRRFNGIGKPIDGLPPITPEKRLPITGLPLNPVARRKPEQFIQTGISTIDVMNTLVRGQKLPIFSGSGLPANEIAAQIARQATVRPDLSGEGEKEEPFAVVFAAMGITQRELSYFIQEFERTGALSRSVLFLNKADDPTIERILTPRMALTVAEYLAFEHDYHVLVILTDMTNYCEALREIGAAREEIPGRRGYPGYMYTDLATIYERAGVVEGKKGSVTQIPILSMPDDDRTHPIPDLTGYITEGQIQLSRELHRKGIYPPIDPLPSLSRLMNNGVGKGKTREDHKQVSDQLYSAYANGVDIRKLVAIIGEDALTENDRRYLQFADAFERFFINQGQQNRSIEESLQIAWALLSMLPQGELKRISKDHIGKYYGQKLEEIWGAPQALD”, “soluble”; under “MDLPQEIETNMECPVCGSLLYLLTYDTDIPYEGRISIYTYQCKKCMYRKTEVYQEEEKNPVRITLKIESPEDLKTLVYRSRKADIYIPEIEASIDSAEYANGEITTVEGIIYRIGEKLDLLSYDDEEKEAVKEVRKKIDDIINGYFGSFTLIITDESGKSVIESEKAITEKILEHHHHHH”, “not soluble”.
With “MDLRDLKTFLHLAESRHFGRSARAMHVSPSTLSRQIQRLEEDLGQPLFVRDNRTVTLTEAGEELRVFAQQTLLQYQQLRHTLDQQGPSLSGELHIFCSVTAAYSHLPPILDRFRAEHPSVEIKLTTGDAADAMEKVVTGEADLAIAGKPETLPGAVAFSMLENLAVVLIAPALPCPVRNQVSVDKPDWSTVPFIMADQGPVRRRIELWFRRHKISNPQIYATVGGHEAMVSMVALGCGVALLPEVVLENSPEPVRNRVMILERSDEKTPFELGVCAQKKRLHEPLIDAFWKILPN” the entry was “soluble”; with “MDLSEDQIRGLPHHELLGHFLQMREEFNEFQTSSAEIEKMMDSELDDLKTQLKKAETRVQQMTTEQIRNKDRQDDSRVQFAQVEEQLRRENSHLHEQCESQRERIRKLEQRNDVLETSERNKEYLASDLGSKLDHAIEKIAMLESELYERQVAAEEMHRLREEQLRTTERPRLIVEPLRNDPEILPDEPSPGPSKEEFKMSSEDVFMEDVQHHEDVRMEETIAKIDEVRIDDNKNIQEKSQRVSTGTGAGACINRIVKDLMTKVERLDSILSTIRVSNNSSNNNSSHLTTTRA”, “not soluble”.
Under “MDMAKDKGFFKKAKTGKNKSSATPYAEECAIQIPSEIDNEQMHRMPAGGEEDQYLRIKHMSALIKKYGNLPIITTRETRLPDYWLELFTAIDEGDTPKAHALFHLLPQEDIILRALRAVHSEDYLYQLIKYCIQAKHFGFKQLNADLVVTPKTFEILIKDCATTLFNPAKTHFSFGLPSHHAYTQMGSGFCLINKTAMLIKQAELSSVQPPRFVIIGTDVNRDNGLCDILRHSFSHLSICHIDVFDSRVYPQQDFSYINNEFNSEGVDVGKNIHVWHHNDLSYYAVDLSLTSRKSVGVHPALLFALEQFKASIREAKVKGQKIALYLPTGWDSHEDETAYCGKFVKGRMLGKTAAHQFRFNDGDLSYFYESIFTLYNENKDCIDTIYWGLEGGYDRTMYKRELTLLLQVIEKQLLPQDSNSHNMSCLEHHHHHH” stands “not soluble”.
Regarding “MDMHSGTFNPQDFAWQGLTLTPAAAIHIRELVAKQPGMVGVRLGVKQTGCAGFGYVLDSVSEPDKDDLLFEHDGAKLFVPLQAMPFIDGTEVDFVREGLNQIFKFHNPKAQNECGCGESFGV”, the “soluble on expression in E. coli” value is “not soluble”.
Consider “MDNDKNSIIDIVGDGINYEKLKKVEKSLCQIDIITEFMNRSRHLQGKKVNGCIMRIDETKQLLFHVIIDGPVGSIYEGGTFFADINIQPYQNHSLIPRVCFHTFIFHPNLGKYGNWDMRGIQWERRSNLEVLYNFIVEGMRNVKYDIERRNLAQLEDMSQPNISRLAKEDWPKFERTAREFVMKMAGGTINGRKTIFAETKKRRRQDFLDEDIDVIGIS”, for which the “soluble on expression in E. coli” value was “not soluble”.
Turning to “MDNEKKSMYEPGVILGGCTLRRQLNDSGEAMVFLAESGNEEKKEVIIKFFKCGYGEDEIKYLDVLTNHEQRRNIVEMLKSFETPEIRLGMVFKRYETDLFGILGDRQRLQPSTIQKYMKGLMEGLQFIHRMDYIHRDIKPENLLIDGETICIADFGETVLSTSDKVVKPGTLPYLTIEHILGYKENTKSMDIWAAACVLGAMFQGSHLFSQNSNLQTIHAIRLLLGNHTKETWPEMDKLPLMQSIELPPVGEKTFSKIENITKEAADLMEQMMKYDPTKRLMASQVLNHEYFKKEASAQAN”, the “soluble on expression in E. coli” value is reported as “not soluble”.
For “MDNPVTFSDITLLNTLATCANMTTDEVFKDFKIMANKKILKNHKYEIYYSESEKSWRTYLPDETKPNKRRPVKRKSKENLEKEIIRFYIEKQKAENRQNVTLEELYAEWLLYKRDYTSVKAKTIQEYVSEWNRFFKDTELVKMKIGEIKPITLIRFFREATKDRQFTHKRVSNARSVLNGIMSYAIEEEIISHNPVSDVNFKQFTYKPVEVQSDNVFSRDDTHKLLNYLRCIIEPYSLAIQLSFYLFIRVGETKAIRWEDIDYNNRLVYFHRQATCERTLNDDLTFSSRKVKVVNQMKGNTSHGFRKQFLTDEALKILHKAKELNPNGIYVFEPNGEIMTTDSFNRRLKKYCKEAGVPYHSSHKIRFYNASTAFDGNNLTTLSYLMGHSETATTLHYLRNVNKRKNDRLAFQNLGISS”, the “soluble on expression in E. coli” value was “not soluble”.
For “MDPGQRPNPFGAPGAIPKKPCLSQGSPGTSGSGAPCDEPSRSESPGEGPSGTGGSAAAGDITRQAVVAAITEWSRTRQLRISTGASEGKASIKDWIVCQVNSGKFPGVEWEDEERTRFRIPVTPLADPCFEWRRDGELGVVYIRERGNMPVDASFKGTRGRRRMLAALRRTRGLQEIGKGISQDGHHFLVFRVRKPEEEQCVECGVVAGAVHDFNNMARLLQEGFFSPGQCLPGEIVTPVPSCTTAEGQEAVIDWGRLFIRMYYNGEQVHELLTTSQSGCRISSALRRDPAVHYCAVGSPGQVWLPNVPNLACEIAKRELCDTLDACAKGILLTSSCNGIFCVCYHNGPVHFIGNTVPPDSGPLLLPQGKPTRIFNPNTFLVGLANSPLPAPSHVTCPLVKLWLGKPVAVGKLEPHAPSPRDFAARCSNFSDACVVLEIMPKPLWDAMQ”, the “soluble on expression in E. coli” value is “soluble”.

(Values after the DeepSol protein solubility set.)
